# From article PMC4860965, “A novel role for the tumour suppressor Nitrilase1 modulating the Wnt/β-catenin signalling pathway” (Cell Discovery, 2016)
# B1: MBP-dNitFhit (natural protein, D. melanogaster, UniProt O76464 1-460, looked up)
# chain: MSTLVNTTRRSIVIAIHQQLRRMSVQKRKDQSATIAVGQMRSTSDKAANLSQVIELVDRAKSQNACMLFLPECCDFVGESRTQTIELSEGLDGELMAQYRELAKCNKIWISLGGVHERNDQKIFNAHVLLNEKGELAAVYRKLHMFDVTTKEVRLRESDTVTPGYCLERPVSTPVGQIGLQICYDLRFAEPAVLLRKLGANLLTYPSAFTYATGKAHWEILLRARAIETQCFVVAAAQIGWHNQKRQSWGHSMIVSPWGNVLADCSEQELDIGTAEVDLSVLQSLYQTMPCFEHRRNDIYALTAYNLRSKEPTQDRPFATNIVDKRTIFYESEHCFAFTNLRCVVKGHVLVSTKRVTPRLCGLDCAEMADMFTTVCLVQRLLEKIYQTTSATVTVQDGAQAGQTVPHVHFHIMPRRLGDFGHNDQIYVKLDERAEEKPPRTIEERIEEAQIYRKFLTDIS
# notes: Drosophila melanogaster NitFhit, amplified from the intronless genomic DNA; source: E. coli XL1 blue or BL21-RE4, purified (amylose resin)
# Biological target: T1, GST-β-catenin (GST-β-cat (aa1–781)) (UniProt P35222 1-781)
# T1 construct: β-catenin aa1–781; the cDNA may be mouse (surmise); source: E. coli XL1 blue or BL21-RE4, purified (glutathione-agarose)
# T1 sequence (looked up): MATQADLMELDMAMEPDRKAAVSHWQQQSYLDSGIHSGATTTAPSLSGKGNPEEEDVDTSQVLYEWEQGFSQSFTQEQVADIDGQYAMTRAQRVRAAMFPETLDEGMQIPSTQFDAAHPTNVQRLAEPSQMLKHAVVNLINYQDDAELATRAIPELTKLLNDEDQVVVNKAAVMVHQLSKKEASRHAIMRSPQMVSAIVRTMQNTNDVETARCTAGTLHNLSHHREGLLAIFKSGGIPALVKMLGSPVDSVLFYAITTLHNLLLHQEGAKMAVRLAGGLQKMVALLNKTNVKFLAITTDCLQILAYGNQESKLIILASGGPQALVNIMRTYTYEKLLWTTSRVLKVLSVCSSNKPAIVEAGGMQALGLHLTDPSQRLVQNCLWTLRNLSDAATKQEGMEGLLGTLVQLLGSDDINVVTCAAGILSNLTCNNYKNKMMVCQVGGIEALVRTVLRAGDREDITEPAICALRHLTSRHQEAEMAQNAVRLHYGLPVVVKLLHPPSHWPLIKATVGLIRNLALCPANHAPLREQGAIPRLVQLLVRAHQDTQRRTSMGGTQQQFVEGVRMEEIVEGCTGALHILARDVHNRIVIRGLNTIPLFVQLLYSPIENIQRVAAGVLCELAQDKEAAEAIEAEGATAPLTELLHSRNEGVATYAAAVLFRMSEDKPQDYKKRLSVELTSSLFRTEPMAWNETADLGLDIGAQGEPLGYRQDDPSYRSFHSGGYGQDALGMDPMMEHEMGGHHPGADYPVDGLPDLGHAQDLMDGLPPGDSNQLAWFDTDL
# Experiment: pull-down; 4 μg GST or GST fusion protein with 5 μg MBP fusion protein, 150 mM NaCl, 20 mM imidazole or HEPES pH 8.0, 2 mM MgCl2, 300 mM sucrose, 0.25% Triton X-100, 20 min at 4 °C; glutathione-agarose beads; western blot with anti-MBP
# Details: both partners purified
binder,measurement,value
B1,binding result,binds
